These results are taken from publication PMC2821021 (Biochemical and biophysical research communications, 2009).

This assay concerns the target T1, 1st beta propeller of human LRP5 (human, UniProt O75197 32-338).
T1 sequence (looked up): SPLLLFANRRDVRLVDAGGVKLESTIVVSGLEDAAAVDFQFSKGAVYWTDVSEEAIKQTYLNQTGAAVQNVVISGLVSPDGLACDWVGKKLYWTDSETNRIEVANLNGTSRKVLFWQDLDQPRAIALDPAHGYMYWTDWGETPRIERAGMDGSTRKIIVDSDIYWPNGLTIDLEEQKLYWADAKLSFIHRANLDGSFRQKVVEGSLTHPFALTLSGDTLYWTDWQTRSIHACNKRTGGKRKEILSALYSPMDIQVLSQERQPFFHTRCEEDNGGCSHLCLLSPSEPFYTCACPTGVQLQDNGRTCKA
The assay is described as follows: SPR.

B1: Recombinant insect cell-produced human sclerostin (natural protein, UniProt Q9BQB4 24-213, looked up)
chain: QGWQAFKNDATEIIPELGEYPEPPPELENNKTMNRAENGGRPPHHPFETKDVSEYSCRELHFTRYVTDGPCRSAKPVTELVCSGQCGPARLLPNAIGRGKWWRPSGPDFRCIPDRYRAQRVQLLCPGGEAPRARKVRLVASCKCKRLTRFHNQSELKDFGTEAARPQKGRKPRPRARSAKANQAELENAY
B1: the binding result is “binds”.
